Biological target: human γδ TCR (Vγ9Vδ2) on human γδ T cells (human)
Assay: cell-based or functional assay

Chain of human γδ TCR (Vγ9Vδ2) on human γδ T cells (human) (main, as listed by the source): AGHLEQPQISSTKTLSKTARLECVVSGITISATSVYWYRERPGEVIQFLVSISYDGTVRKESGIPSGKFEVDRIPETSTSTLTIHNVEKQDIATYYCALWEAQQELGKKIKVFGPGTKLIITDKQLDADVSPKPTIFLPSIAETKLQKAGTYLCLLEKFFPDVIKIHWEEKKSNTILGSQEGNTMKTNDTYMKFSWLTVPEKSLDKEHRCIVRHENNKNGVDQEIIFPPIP

B1: 1D7v158×5T4 bispecific γδTCR×5T4 molecule (bispecific antibody, part only; not given: anti-5T4 VHH, Fc halves, not shown: a dimerising Fc or GST)
chain, part: EVQLLESGGGEVQPGGSLRLSCVASRGKISQYRMGWYRQAPGKQRELVAHISNTGDAAEYVAPVKGRFTISRDNAKNALYLQMNSLRAEDTAVYKCNTVEDILAWGQGTLVTVEP
- potency (EC50) of γδ T cell-mediated caspase-3/7 activation / cytotoxicity on A375 cells, against the molecule comprising 1D7v9: 2 fold

Source: patent US20250066477A1
